From publication PMC3306252 (Nature, 2012) come the findings set out here.

By Kd is commonly meant the free concentration of one partner at which half of the binding sites on the other are occupied at equilibrium, for simple one-to-one binding. Low values mean tighter binding, high ones weaker binding. The stoichiometry N is the number of molecules, sites or subunits per partner or assembly.

The target of series [1] is BODIPY-FL Srs2(1107-1174) (S. cerevisiae) (UniProt P12954). The series can be described thus: fluorescence polarisation. A general note: Fluorescence polarisation rises when a labelled molecule tumbles more slowly, as on binding a larger partner.
The target of series [2] is Srs2(1137-1174) (S. cerevisiae) (UniProt P12954). The series can be described thus: fluorescence polarisation.
Series [3] concerns the molecule itself. The series can be described thus: crystal structure.
Another series deals with T1, Srs2(1107-1174) Q1149E (S. cerevisiae, UniProt P12954 1107-1174, Q1149E, BODIPY-FL conjugated (FP was done with BODIPY-FL conjugated Srs2)).
T1 sequence: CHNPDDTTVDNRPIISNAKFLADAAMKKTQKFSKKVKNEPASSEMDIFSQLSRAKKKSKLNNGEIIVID
Put plainly: fluorescence polarisation.

The target of a further series is T2, Srs2(1107-1174) D1151A (S. cerevisiae, UniProt P12954 1107-1174, D1151A, BODIPY-FL conjugated (FP was done with BODIPY-FL conjugated Srs2)).
T2 sequence: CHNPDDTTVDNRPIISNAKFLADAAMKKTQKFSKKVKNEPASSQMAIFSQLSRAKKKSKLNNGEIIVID
Put plainly: fluorescence polarisation.

In a further series the target is T3, Srs2(1107-1174) I1152A (S. cerevisiae, UniProt P12954 1107-1174, I1152A, BODIPY-FL conjugated (FP was done with BODIPY-FL conjugated Srs2)).
T3 sequence: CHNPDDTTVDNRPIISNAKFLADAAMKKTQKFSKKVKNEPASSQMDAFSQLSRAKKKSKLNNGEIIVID
Put plainly: fluorescence polarisation.

In the next series the target is T4, Srs2(1107-1174) F1153A (S. cerevisiae, UniProt P12954 1107-1174, F1153A, BODIPY-FL conjugated (FP was done with BODIPY-FL conjugated Srs2)).
T4 sequence: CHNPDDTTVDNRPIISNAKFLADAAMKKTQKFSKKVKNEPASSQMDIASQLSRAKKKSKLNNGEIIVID
The series can be described thus: fluorescence polarisation.

The next series addresses T5, Srs2(1107-1174) Q1155E (S. cerevisiae, UniProt P12954 1107-1174, Q1155E, BODIPY-FL conjugated (FP was done with BODIPY-FL conjugated Srs2)).
T5 sequence: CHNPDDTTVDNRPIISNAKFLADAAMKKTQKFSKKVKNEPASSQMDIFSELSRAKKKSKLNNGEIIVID
The series can be described thus: fluorescence polarisation.

A further series concerns the target T6, Srs2(1107-1174) L1156A (S. cerevisiae, UniProt P12954 1107-1174, L1156A, BODIPY-FL conjugated (FP was done with BODIPY-FL conjugated Srs2)).
T6 sequence: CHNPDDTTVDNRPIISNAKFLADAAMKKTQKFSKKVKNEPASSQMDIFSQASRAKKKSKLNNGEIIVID
The series can be described thus: fluorescence polarisation.

The target of another series is T7, His6-Eco1 (S. cerevisiae, UniProt P43605 1-281).
T7 sequence (looked up): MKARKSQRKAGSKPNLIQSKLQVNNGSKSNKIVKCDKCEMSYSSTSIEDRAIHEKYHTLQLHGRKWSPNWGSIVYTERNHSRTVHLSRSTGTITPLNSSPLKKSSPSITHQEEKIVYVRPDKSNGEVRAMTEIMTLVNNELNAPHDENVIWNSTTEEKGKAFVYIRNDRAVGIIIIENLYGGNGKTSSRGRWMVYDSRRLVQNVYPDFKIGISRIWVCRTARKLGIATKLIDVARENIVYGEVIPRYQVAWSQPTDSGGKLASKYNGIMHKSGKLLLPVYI
The series can be described thus: pull-down.

Series [4] concerns the molecule itself. Put plainly: crystal structure. The source holds these as a separate data set.

With “SUMO_K164-PCNA^tri K127G (from UniProt P15873 1-258; Q12306 19-98) (complex)”, in series [1], the equilibrium dissociation constant (Kd) came out at 26.3 nM. Also, in [2], the fold tighter than Srs2(1107-1174) is 8 fold. Turning to “SUMO_K127-PCNA^tri (PCNA K164R) (from UniProt P15873 1-258; Q12306 19-98) (complex)”, the Kd in series [1] came out at 25.1 nM.

In series [1], “PCNA (yeast proliferating cell nuclear antigen, trimer; variant not named) (from UniProt P15873 1-258) (natural protein)” gave a Kd of 169 nM. Besides, the fold weaker than Srs2(1107-1174) in series [2] was 3 fold.

As to “GST-SUMO (from UniProt Q12306 1-101) (natural protein)”, the Kd in series [1] amounted to 877 nM. The same molecule had a fold weaker than Srs2(1107-1174) in series [2] of 4 fold. For the molecule “SUMO_K127-PCNA^mono (PCNA K164R) (from UniProt P15873 1-258; Q12306 19-98) (complex)”, the dissociation constant (Kd) in [1] amounted to 14 nM. “SUMO_K164-PCNA^mono K127G (from UniProt P15873 1-258; Q12306 19-98) (complex)” returned a dissociation constant Kd in [1] of 79 nM.

In series [1], “PCNA^mono (N-ethylmaleimide-treated PCNA) (from UniProt P15873 1-258) (natural protein)” registered a fold worse than PCNA^tri of 6.5 fold.

B1: PCNA^tri K127G (natural protein, budding yeast)
chain: MLEAKFEEASLFKRIIDGFKDCVQLVNFQCKEDGIIAQAVDDSRVLLVSLEIGVEAFQEYRCDHPVTLGMDLTSLSKILRCGNNTDTLTLIADNTPDSIILLFEDTKKDRIAEYSLKLMDIDADFLGIEELQYDSTLSLPSSEFSKIVRDLSQLSDSINIMITKETIKFVADGDIGSGSVIIKPFVDMEHPETSIKLEMDQPVDLTFGAKYLLDIIKGSSLSDRVGIRLSSEAPALFQFDLKSGFLQFFLAPKFNDEE
Regarding B1, the “stoichiometry N” value in the series “crystal structure [3]” amounted to 3. Besides, the “fold defect in Kd against wild-type Srs2(1107-1174)” value with Srs2(1107-1174) Q1149E was found to be 3 fold; with Srs2(1107-1174) D1151A it was 10 fold; with Srs2(1107-1174) I1152A, 60 fold. The “fold reduced affinity against wild-type Srs2(1107-1174)” value in the series with Srs2(1107-1174) F1153A was 9 fold; with Srs2(1107-1174) Q1155E, 31 fold; with Srs2(1107-1174) L1156A it was 73 fold.

B2: PCNA FLKI(125-128)AAAA (natural protein, budding yeast)
chain: MLEAKFEEASLFKRIIDGFKDCVQLVNFQCKEDGIIAQAVDDSRVLLVSLEIGVEAFQEYRCDHPVTLGMDLTSLSKILRCGNNTDTLTLIADNTPDSIILLFEDTKKDRIAEYSLKLMDIDADAAAAEELQYDSTLSLPSSEFSKIVRDLSQLSDSINIMITKETIKFVADGDIGSGSVIIKPFVDMEHPETSIKLEMDQPVDLTFGAKYLLDIIKGSSLSDRVGIRLSSEAPALFQFDLKSGFLQFFLAPKFNDEE
As to B2, the binding result with His6-Eco1 is “binds”.

B3: PCNA K127G, NEM-modified (the PCNA part of SUMO_K164-PCNA^mono) (natural protein, budding yeast)
chain: MLEAKFEEASLFKRIIDGFKDCVQLVNFQCKEDGIIAQAVDDSRVLLVSLEIGVEAFQEYRCDHPVTLGMDLTSLSKILRCGNNTDTLTLIADNTPDSIILLFEDTKKDRIAEYSLKLMDIDADFLGIEELQYDSTLSLPSSEFSKIVRDLSQLSDSINIMITKETIKFVADGDIGSGSVIIKPFVDMEHPETSIKLEMDQPVDLTFGAKYLLDIIKGSSLSDRVGIRLSSEAPALFQFDLKSGFLQFFLAPKFNDEE
modifications: N-ethylmaleimide on C22 and C81; K164 conjugated to SUMO G98
Consider B3, for which, in “crystal structure [4]”, the binding result was “binds”.
